Measurements from PMC11100828.

Target: human Nup153^CTD (C-terminal domain, aa 896-1485), MBP and SNAP-tag fusion protein (human)
Assay: negative-stain TEM, occupancy of NuPODs by capsids

In the case of “HBV capsids assembled in vitro from wild type HBV core protein (HBc) (from UniProt P03146 1-183) (complex)”, the percent of NuPODs occupied by at least one capsid is reported as 90%.
